Assay results from publication PMC9678776, “A higher plant FAD synthetase is fused to an inactivated FAD pyrophosphatase” (The Journal of Biological Chemistry, 2022).
Values belong to the molecule of their own block, whether it stands above or below them.

Columns and labels:
CrFADS1 = target: T1, CrFADS1 (Chlamydomonas reinhardtii, UniProt A0A2K3D179); test: HPLC-fluorescence FAD synthetase assay, substrate-inhibition fit; type: biochemical; conditions: substrate inhibition by FMN; 10 mM ATP, zinc acetate 2 mM above ATP, Hepes-NaOH pH 7.0, 30 °C
T1 construct: gene FADS1; bifunctional fusion
T1 sequence (A0A2K3D179 1-582): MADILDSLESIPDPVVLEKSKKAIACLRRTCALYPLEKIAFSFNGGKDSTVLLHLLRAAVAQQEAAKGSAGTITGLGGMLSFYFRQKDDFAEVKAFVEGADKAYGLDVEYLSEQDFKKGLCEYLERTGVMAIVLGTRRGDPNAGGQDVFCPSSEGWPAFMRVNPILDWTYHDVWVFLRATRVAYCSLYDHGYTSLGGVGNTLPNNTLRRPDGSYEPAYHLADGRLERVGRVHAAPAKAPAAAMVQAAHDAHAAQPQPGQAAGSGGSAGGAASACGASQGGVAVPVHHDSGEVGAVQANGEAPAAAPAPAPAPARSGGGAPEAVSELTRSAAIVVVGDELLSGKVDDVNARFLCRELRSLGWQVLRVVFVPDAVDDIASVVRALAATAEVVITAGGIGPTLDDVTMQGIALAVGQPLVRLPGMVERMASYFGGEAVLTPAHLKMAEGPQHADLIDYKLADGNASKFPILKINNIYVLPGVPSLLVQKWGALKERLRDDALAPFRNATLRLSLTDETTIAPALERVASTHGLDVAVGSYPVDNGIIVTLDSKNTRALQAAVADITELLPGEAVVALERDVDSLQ
Source text: (§1) HPLC-fluorescence FAD synthetase assay, substrate-inhibition fit on CrFADS1

AtFADS1^trunc = target: T2, AtFADS1^trunc (Arabidopsis thaliana, UniProt Q9LZE4); test: as above; type: biochemical; conditions: substrate inhibition by FMN; ATP, zinc acetate 2 mM above ATP, Hepes-NaOH pH 7.0, 30 °C
T2 construct: gene FADS1; N-terminal FAD synthetase domain only, starting at native Met1
T2 sequence (Q9LZE4 1-254 limits assumed): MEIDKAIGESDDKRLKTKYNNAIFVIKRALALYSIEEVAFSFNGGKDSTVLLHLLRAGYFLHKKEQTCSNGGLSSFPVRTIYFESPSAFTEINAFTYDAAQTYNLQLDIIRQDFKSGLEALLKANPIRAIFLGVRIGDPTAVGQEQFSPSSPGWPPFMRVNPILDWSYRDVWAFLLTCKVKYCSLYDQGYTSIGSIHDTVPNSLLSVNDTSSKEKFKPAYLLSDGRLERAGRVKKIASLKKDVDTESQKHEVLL
Source text: HPLC-fluorescence FAD synthetase assay, substrate-inhibition fit on AtFADS1^trunc

AtFADS1 = target: T3, AtFADS1 (Arabidopsis thaliana, UniProt Q9LZE4); test: as above; type: biochemical; conditions: substrate inhibition by FMN; 10 mM ATP, zinc acetate 2 mM above ATP, Hepes-NaOH pH 7.0, 30 °C
T3 construct: gene FADS1; N-terminus from primer MEIDKA
T3 sequence (Q9LZE4 1-497): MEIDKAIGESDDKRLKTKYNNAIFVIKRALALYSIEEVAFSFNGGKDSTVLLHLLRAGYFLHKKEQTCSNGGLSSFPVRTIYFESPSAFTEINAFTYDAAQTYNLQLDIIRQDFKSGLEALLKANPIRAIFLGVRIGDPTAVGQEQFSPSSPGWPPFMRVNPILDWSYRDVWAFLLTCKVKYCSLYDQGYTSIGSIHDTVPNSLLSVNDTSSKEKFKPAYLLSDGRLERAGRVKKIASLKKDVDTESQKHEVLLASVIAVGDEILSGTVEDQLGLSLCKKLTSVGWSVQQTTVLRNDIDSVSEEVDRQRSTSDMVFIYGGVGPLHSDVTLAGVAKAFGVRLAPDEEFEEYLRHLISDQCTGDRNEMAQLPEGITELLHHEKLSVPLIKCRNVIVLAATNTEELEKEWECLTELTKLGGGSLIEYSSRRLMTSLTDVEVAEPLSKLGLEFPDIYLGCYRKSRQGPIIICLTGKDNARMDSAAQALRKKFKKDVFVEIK
Source text: HPLC-fluorescence FAD synthetase assay, substrate-inhibition fit on AtFADS1

[1] = substrate: Cc1cc2nc3c(=O)[nH]c(=O)nc-3n(C[C@H](O)[C@H](O)[C@H](O)COP(=O)(O)O)c2cc1C; test: as above; type: biochemical, Chlamydomonas reinhardtii; conditions: FAD synthetase activity, 10 mM ATP, zinc acetate 2 mM above ATP, Hepes-NaOH pH 7.0, 30 °C
Source text: as §1

[2] = substrate: Cc1cc2nc3c(=O)[nH]c(=O)nc-3n(C[C@H](O)[C@H](O)[C@H](O)COP(=O)(O)OP(=O)(O)OC[C@H]3O[C@@H](n4cnc5c(N)ncnc54)[C@H](O)[C@@H]3O)c2cc1C; test: HPLC-fluorescence FAD pyrophosphatase assay, Michaelis-Menten; type: biochemical, Chlamydomonas reinhardtii; conditions: FAD pyrophosphatase activity, 2 mM CoCl2, 200 mM KCl, Hepes-NaOH pH 7.0, 30 °C
Source text: HPLC-fluorescence FAD pyrophosphatase assay, Michaelis-Menten on […]1

[3] = substrate: Nc1ncnc2c1ncn2[C@@H]1O[C@H](COP(=O)(O)OP(=O)(O)OP(=O)(O)O)[C@@H](O)[C@H]1O; test: HPLC-fluorescence FAD synthetase assay, Michaelis-Menten; type: biochemical, Arabidopsis thaliana; conditions: FAD synthetase activity, 15 μM FMN, zinc acetate 2 mM above ATP, Hepes-NaOH pH 7.0, 30 °C
Source text: HPLC-fluorescence FAD synthetase assay, Michaelis-Menten on […]1

Ki (CrFADS1): 336 ± 66 µM | Ki (AtFADS1^trunc): 32.7 ± 18.2 µM | Ki (AtFADS1): 190 ± 36 µM
Molecule: Cc1cc2nc3c(=O)[nH]c(=O)nc-3n(C[C@H](O)[C@H](O)[C@H](O)COP(=O)(O)O)c2cc1C [FMN]

B1: CrFADS1 (Chlamydomonas reinhardtii) (protein)
chain: MADILDSLESIPDPVVLEKSKKAIACLRRTCALYPLEKIAFSFNGGKDSTVLLHLLRAAVAQQEAAKGSAGTITGLGGMLSFYFRQKDDFAEVKAFVEGADKAYGLDVEYLSEQDFKKGLCEYLERTGVMAIVLGTRRGDPNAGGQDVFCPSSEGWPAFMRVNPILDWTYHDVWVFLRATRVAYCSLYDHGYTSLGGVGNTLPNNTLRRPDGSYEPAYHLADGRLERVGRVHAAPAKAPAAAMVQAAHDAHAAQPQPGQAAGSGGSAGGAASACGASQGGVAVPVHHDSGEVGAVQANGEAPAAAPAPAPAPARSGGGAPEAVSELTRSAAIVVVGDELLSGKVDDVNARFLCRELRSLGWQVLRVVFVPDAVDDIASVVRALAATAEVVITAGGIGPTLDDVTMQGIALAVGQPLVRLPGMVERMASYFGGEAVLTPAHLKMAEGPQHADLIDYKLADGNASKFPILKINNIYVLPGVPSLLVQKWGALKERLRDDALAPFRNATLRLSLTDETTIAPALERVASTHGLDVAVGSYPVDNGIIVTLDSKNTRALQAAVADITELLPGEAVVALERDVDSLQ
notes: bifunctional fusion
Km [1]: 0.54 ± 0.09 µM | kcat [1]: 0.103 ± 0.004 s⁻¹ | kcat/Km [1]: 191000 ± 33000 M⁻¹ s⁻¹ | Km [2]: 4.88 ± 0.56 µM | kcat [2]: 0.395 ± 0.011 s⁻¹ | kcat/Km [2]: 81000 ± 9600 M⁻¹ s⁻¹

B2: AtFADS1 (Arabidopsis thaliana) (protein)
chain: MEIDKAIGESDDKRLKTKYNNAIFVIKRALALYSIEEVAFSFNGGKDSTVLLHLLRAGYFLHKKEQTCSNGGLSSFPVRTIYFESPSAFTEINAFTYDAAQTYNLQLDIIRQDFKSGLEALLKANPIRAIFLGVRIGDPTAVGQEQFSPSSPGWPPFMRVNPILDWSYRDVWAFLLTCKVKYCSLYDQGYTSIGSIHDTVPNSLLSVNDTSSKEKFKPAYLLSDGRLERAGRVKKIASLKKDVDTESQKHEVLLASVIAVGDEILSGTVEDQLGLSLCKKLTSVGWSVQQTTVLRNDIDSVSEEVDRQRSTSDMVFIYGGVGPLHSDVTLAGVAKAFGVRLAPDEEFEEYLRHLISDQCTGDRNEMAQLPEGITELLHHEKLSVPLIKCRNVIVLAATNTEELEKEWECLTELTKLGGGSLIEYSSRRLMTSLTDVEVAEPLSKLGLEFPDIYLGCYRKSRQGPIIICLTGKDNARMDSAAQALRKKFKKDVFVEIK
notes: N-terminus from primer MEIDKA
Km [3]: 665 ± 11 µM | kcat [3]: 0.287 ± 0.011 s⁻¹ | kcat/Km [3]: 432 ± 18 M⁻¹ s⁻¹
